Measured values as given in patent US20200262930A1 (YALE UNIVERSITY, published 2020).
Substitutions are numbered along the chain they refer to.

B1: H2-L1 (humanized anti-YKL-40 antibody) (antibody, V domains shown)
VH: QIQLVQSGSELKKPGASVKISCKASGYTFTNYGMNWVRQAPGQGLEWMGWINTYTGEPTYAQGFTGRFVFSLDTSVSTAYLQISSLKAEDTSVYFCARLGYGKFYVMDYWGQGTSVTVSS
VL: DVVMTQSPLSLPVTLGQPASISCRSSQSLVHSNGNTYLNWYQQRPGQSPRLLIYKVSNRFSGVPDRFSGSGSGTDFTLKISRVEAEDVGVYFCSQSTHVTWTFGGGTKLEIK
notes: Humanized variant
B2: H12-L8 (humanized anti-YKL-40 antibody) (antibody, V domains shown)
VH: QIQLVQSGPEVKQPGASVKISCKASGYSFTTYGMNWVKQAPGQGLEWMGWINTYTGEPTYADDFKGRFVFSLDTSASTAYLQISSLKAEDMSTYFCARLGYGKFYVMDYWGQGTSVTVSS
VL: B1 VL with N39H, F92Y
notes: Humanized variant
B3: H11-L5 (humanized anti-YKL-40 antibody) (antibody, V domains shown)
VH: B2 VH with S28T, T31N, E46K, D62Q, D63G, K65T
VL: B1 VL with V2I, S7T, P12S, L15P, R24K, N39H, Q42L, R44K, R50Q, F92Y
notes: Humanized variant
B4: H1-L1 (humanized anti-YKL-40 antibody) (antibody, V domains shown)
VH: B1 VH with Q62D, G63D, T65K
VL: B1 VL
notes: Humanized, kappa light chain, human IgG (detected with goat anti-human IgG-HRP; the PK assay uses an anti-IgG1 capture antibody); also called anti-YKL-40 H1-L1
B5: H4-L1 (humanized anti-YKL-40 antibody) (antibody, V domains shown)
VH: B1 VH with E46K, Q62D, G63D, T65K
VL: B1 VL
notes: Humanized, human IgG (detected with goat anti-human IgG-HRP)
B6: H11-L1 (humanized anti-YKL-40 antibody) (antibody, V domains shown)
VH: B2 VH with S28T, T31N, E46K, D62Q, D63G, K65T
VL: B1 VL
notes: Humanized, human IgG

These binders were tested against T1, murine BRP-39 (murine homologue of CHI3L1/YKL-40) (murine, UniProt Q61362 30-389, limits assumed) (assay: titration ELISA against murine BRP-39).
T1 construct: also called murine YKL-40
T1 sequence (Q61362 30-389 limits assumed): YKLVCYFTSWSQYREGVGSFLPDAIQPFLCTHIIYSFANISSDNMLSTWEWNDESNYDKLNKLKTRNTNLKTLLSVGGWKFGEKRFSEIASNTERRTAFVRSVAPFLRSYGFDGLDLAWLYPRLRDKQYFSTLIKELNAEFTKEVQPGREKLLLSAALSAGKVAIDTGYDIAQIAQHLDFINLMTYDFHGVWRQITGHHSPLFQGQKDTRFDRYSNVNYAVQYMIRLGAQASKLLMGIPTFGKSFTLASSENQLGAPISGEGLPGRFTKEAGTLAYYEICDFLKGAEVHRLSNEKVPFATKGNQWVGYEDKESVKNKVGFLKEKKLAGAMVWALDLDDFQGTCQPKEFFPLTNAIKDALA

Row | Binder | binding result
1 | B1 | binds
2 | B2 | binds
3 | B3 | binds

The binders below were run against T2, primate (Cynomolgus monkey) CHI3L1/YKL-40 (Cynomolgus monkey, UniProt A0A7N9DGM0 12-373) (assay: titration ELISA).
T2 construct: also called primate CHI3L1/YKL-40

Row | Binder | fold difference in affinity among species (human highest) [fold]
4 | B4 | ≤ 2
5 | B5 | ≤ 2
6 | B6 | ≤ 2

Each binder was assayed against T1, murine BRP-39 (murine homologue of …) (assay: titration ELISA).

Row | Binder | fold difference in affinity among species (human highest) [fold]
7 | B4 | ≤ 2
8 | B5 | ≤ 2
9 | B6 | ≤ 2

What follows are binders tested against T3, human CHI3L1/YKL-40 (human, UniProt P36222 22-383) (assay: titration ELISA against human YKL-40).
T3 construct: also called human YKL-40
T3 sequence (P36222 22-383 limits assumed): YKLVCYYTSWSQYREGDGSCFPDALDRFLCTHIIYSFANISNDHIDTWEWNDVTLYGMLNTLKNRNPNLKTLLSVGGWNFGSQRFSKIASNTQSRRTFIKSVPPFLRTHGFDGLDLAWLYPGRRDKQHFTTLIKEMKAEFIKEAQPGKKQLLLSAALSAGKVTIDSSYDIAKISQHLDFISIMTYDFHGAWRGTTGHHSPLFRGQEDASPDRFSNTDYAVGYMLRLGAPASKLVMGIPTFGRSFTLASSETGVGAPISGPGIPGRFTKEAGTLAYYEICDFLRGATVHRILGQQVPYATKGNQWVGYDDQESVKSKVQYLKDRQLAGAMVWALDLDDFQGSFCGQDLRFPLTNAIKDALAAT

Row | Binder | binding result
10 | B4 | binds
11 | B1 | binds
12 | B5 | binds
13 | B6 | binds
14 | B2 | binds
15 | B3 | binds
